Results on one substance are retold here after article PMC9700037.

The assay deals with His6-tev-DPP9 (UniProt Q86TI2). Kind of assay: SEC-MALS; co-eluting SEC fractions of FIIND, DPP9 and free UPA co-expressed in Sf9 and co-purified; 0.5-1.0 mg/ml, Superose 6 increase (10/300) GL, buffer A without glycerol. (SEC sorts molecules by how far they enter the pores of the column.)
His6-tev-DPP9, sequence (Q86TI2 whole entry): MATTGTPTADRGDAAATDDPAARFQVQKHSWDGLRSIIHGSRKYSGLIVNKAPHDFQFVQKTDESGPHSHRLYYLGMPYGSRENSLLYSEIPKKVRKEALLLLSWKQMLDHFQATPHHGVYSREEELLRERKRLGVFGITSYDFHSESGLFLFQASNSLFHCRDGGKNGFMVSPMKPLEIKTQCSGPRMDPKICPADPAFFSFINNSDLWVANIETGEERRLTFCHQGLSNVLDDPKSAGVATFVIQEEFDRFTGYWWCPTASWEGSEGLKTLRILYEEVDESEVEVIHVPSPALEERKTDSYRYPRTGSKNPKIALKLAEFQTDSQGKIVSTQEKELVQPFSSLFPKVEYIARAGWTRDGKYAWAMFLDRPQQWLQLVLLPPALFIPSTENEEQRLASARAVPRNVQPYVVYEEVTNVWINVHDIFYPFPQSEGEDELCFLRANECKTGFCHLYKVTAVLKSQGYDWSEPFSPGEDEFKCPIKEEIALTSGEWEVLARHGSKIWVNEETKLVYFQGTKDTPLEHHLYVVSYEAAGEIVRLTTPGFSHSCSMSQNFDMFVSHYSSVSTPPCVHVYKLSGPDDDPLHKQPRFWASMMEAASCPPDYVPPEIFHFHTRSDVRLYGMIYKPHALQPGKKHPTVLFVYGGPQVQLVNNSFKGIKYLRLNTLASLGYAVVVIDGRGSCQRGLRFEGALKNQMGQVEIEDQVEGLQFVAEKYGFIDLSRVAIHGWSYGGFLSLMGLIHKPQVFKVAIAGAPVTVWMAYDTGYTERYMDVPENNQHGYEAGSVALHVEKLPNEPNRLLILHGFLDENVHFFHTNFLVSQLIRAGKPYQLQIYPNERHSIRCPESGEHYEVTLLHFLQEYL

free UPA domain (from the SUMO-UPA construct) (domain or fragment), sequence (Q9C000 whole entry, the tested form may be a part): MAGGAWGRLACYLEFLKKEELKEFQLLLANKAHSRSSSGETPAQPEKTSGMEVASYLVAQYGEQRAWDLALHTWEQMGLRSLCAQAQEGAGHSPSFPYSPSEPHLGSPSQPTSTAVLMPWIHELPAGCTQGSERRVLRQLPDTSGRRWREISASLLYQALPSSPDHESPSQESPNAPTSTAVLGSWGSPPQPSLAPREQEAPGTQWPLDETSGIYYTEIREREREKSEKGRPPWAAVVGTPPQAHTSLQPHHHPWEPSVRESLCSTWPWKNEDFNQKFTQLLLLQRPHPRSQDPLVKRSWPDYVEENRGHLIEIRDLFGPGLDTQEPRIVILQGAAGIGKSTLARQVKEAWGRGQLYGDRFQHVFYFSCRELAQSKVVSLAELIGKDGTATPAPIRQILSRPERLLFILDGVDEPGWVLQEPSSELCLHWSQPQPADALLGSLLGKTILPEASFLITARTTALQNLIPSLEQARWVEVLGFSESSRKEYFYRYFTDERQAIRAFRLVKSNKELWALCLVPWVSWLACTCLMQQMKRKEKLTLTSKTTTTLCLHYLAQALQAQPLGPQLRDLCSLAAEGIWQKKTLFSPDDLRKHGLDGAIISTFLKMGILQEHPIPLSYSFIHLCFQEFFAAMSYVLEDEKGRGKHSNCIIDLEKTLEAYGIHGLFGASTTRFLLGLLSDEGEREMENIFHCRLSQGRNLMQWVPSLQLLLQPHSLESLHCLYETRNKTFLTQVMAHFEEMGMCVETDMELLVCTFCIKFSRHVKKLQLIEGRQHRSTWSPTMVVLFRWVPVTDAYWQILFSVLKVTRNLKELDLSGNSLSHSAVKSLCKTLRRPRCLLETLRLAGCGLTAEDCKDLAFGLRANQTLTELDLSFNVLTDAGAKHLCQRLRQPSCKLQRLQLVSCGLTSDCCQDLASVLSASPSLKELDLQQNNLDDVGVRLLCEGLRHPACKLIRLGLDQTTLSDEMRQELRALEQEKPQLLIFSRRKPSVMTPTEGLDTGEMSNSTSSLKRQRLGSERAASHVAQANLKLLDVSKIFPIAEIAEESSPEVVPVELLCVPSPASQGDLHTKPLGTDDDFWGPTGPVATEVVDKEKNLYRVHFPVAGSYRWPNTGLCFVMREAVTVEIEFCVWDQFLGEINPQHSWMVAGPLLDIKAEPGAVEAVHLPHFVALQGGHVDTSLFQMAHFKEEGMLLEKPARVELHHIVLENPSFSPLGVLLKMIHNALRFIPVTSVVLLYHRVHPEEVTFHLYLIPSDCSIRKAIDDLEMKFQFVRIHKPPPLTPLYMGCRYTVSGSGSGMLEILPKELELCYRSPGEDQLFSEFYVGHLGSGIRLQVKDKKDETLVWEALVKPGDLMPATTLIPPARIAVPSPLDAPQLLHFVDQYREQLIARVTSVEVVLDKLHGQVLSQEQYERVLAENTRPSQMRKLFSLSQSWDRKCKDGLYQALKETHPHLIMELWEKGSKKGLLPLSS

Turning to “free UPA domain (from the SUMO-UPA construct) (domain or fragment)”, the stoichiometry N (UPA per DPP9 dimer) worked out at 1.
